Measurements: paper PMC10033377 (Nature structural & molecular biology, 2023)
Changes are numbered by the printed parent chain. Names and notes keep the numbering of the source.

Experiments:
[1] = target: the molecule itself; experiment: SEC
[2] = target: the molecule itself; experiment: negative stain EM

B1: PRPS1-D52H (enzyme, human)
chain: MPNIKIFSGSSHQDLSQKIADRLGLELGKVVTKKFSNQETCVEIGESVRGEHVYIVQSGCGEINDNLMELLIMINACKIASASRVTAVIPCFPYARQDKKDKSRAPISAKLVANMLSVAGADHIITMDLHASQIQGFFDIPVDNLYAEPAVLKWIRENISEWRNCTIVSPDAGGAKRVTSIADRLNVDFALIHKERKKANEVDRMVLVGDVKDRVAILVDDMADTCGTICHAADKLLSAGATRVYAILTHGIFSGPAISRINNACFEAVVVTNTIPQEDKMKHCSKIQVIDISMILAEAIRRTHNGESVSYLFSHVPL
- binding result [1]: binds

B2: PRPS1-V309F (enzyme, human)
chain: B1 chain with H52D, V309F
- binding result [2]: binds

B3: PRPS1-I290T (enzyme, human)
chain: B1 chain with H52D, I290T
- binding result [2]: binds

B4: PRPS1-S16P (enzyme, human)
chain: B1 chain with S16P, H52D
- binding result [2]: binds
